Measured values published in patent publication US20090081183A1, “HIV Transcription Repressor Complex and Compositions and Methods Based Thereon” (priority 1997, published 2009).
Where two headings read alike, the source gives them in different places.

T1: LSF (Homo sapiens, UniProt Q12800, A491Q)
T1 construct: host or cells: in vitro transcription/translation in rabbit reticulocyte lysate (T7 RNA polymerase)
T1 sequence (Q12800 1-502 A491Q): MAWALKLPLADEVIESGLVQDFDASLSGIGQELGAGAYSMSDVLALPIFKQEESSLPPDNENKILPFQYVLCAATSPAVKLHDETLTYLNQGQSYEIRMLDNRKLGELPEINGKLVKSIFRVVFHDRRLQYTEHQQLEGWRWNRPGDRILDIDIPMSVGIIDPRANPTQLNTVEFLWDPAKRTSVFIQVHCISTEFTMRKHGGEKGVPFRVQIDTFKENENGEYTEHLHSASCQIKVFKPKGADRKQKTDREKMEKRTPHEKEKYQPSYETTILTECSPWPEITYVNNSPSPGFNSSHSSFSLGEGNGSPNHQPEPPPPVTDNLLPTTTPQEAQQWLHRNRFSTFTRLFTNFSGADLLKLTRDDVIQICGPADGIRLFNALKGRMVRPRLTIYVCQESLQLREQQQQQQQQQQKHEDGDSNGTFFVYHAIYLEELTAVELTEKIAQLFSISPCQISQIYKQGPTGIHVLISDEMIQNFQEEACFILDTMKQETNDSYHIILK


Experiments:
HIV-1 LTR = assay: Tat-activated integrated LTR-CAT reporter assay in HeLa-CD4-LTR cells; assay type: cell-based
Description: Cell lines transfections and assays. Transfections of HeLa cells were performed as previously described (49). HeLa-CD4-LTR (9) cells were grown in DMEM supplemented with 10% FCS and transfected with 20 μg plasmid DNA (prepared using EndoFree plasmid kit, Qiagen, Valencia, Calif.) by calcium phosphate coprecipitation as per manufacturer's instructions (ProFection system, Promega, Madison, Wis.). After 30 minutes at room temperature, the solution was added to the cells (2.5-4×10^5 cells/plate). Twelve hours after transfection, the cells were washed with PBS and fed fresh medium. Forty-eight hours later the cells were harvested, cellular extracts prepared, and CAT assays performed as previously described (49). To control for the effect of transcription factor overexpression on general cellular promoters a reporter construct driven by the beta-actin promoter, pH[…]-actin-luciferase (66), was used in cotransfection and CAT expression normalized for luciferase activity. Other plasmids used have been previously described (2, 49). […] Up to 30 μl of cellular extract (normalized for protein concentration) in a final volume of 130 μl was used for luciferase reactions.
The LTR reporter carried by HeLa-CD4-LTR cell line exists within the native chromatin structure of the genome. […]

[1] = test system: RCS oligonucleotide (−10 to +27 of HIV-1 LTR); assay type: binding
LSF = biological target: T1, LSF; assay: In vitro protein interaction mapping: GST-YY1/GFI-1 chimeras retaining 35S-labeled LSF; assay type: binding; settings: glutathione-agarose capture, 35S-methionine labeled LSF
Description: In vitro protein interaction mapping: Glutathione-S-transferase (GST)-YY1/GFI-1 chimeras (17) and G3ST-LSF deletion (54, 55) constructs were expressed and harvested in E. coli as previously described. Proteins were visualized by Coomassie brilliant blue staining and protein content was normalized by densitometric analysis. LSF was transcribed and translated in vitro by T7 RNA polymerase in rabbit reticulocyte (Promega, Madison, Wis.) in the presence of ^35S-methionine as per manufacturer's instruction (54). Following capture of GST-YY1/GFI-1 chimera proteins on glutathione-agarose beads, equal volumes of beads were incubated with ^35S-methionine labeled LSF in incubation buffer (17) for 1 hour at 4° C. The beads were washed in incubation buffer/100 mM KCl and resuspended in 20 μl 2×SDS loading buffer. Retained LSF was separated in a 10% SDS gel, dried, and visualized by autoradiography. Similarly, YY1 was transcribed and translated in vitro, incubated with captured GST-LSF constructs, and retained YY1 was by autoradiography following electrophoresis.
YY1 DNA-binding activity and many YY1-protein interactions map to the carboxyl-terminal zinc fingers of the molecule. Therefore, YY1 interaction domains were mapped using chimeric YY1 recombinants (FIG. 2c). […]

Molecule | Tat-activated CAT expression from integrated LTR reporter (HIV-1 LTR; 200 ng pAR-Tat, 2.5 μg CMV expression plasmid, normalized to β-actin-luciferase) | Effect on YY1-mediated repression of integrated LTR-CAT expression (HIV-1 LTR; with YY1 transfection, trichostatin-A added to culture medium (data not shown)) | Complex formation with the RCS in EMSA ([1]; 10 ng protein alone) | Complex formation with the RCS in EMSA ([1]; 20 ng protein alone) | Binding of LSF in vitro by GST-fused construct (LSF)
LSF: lymphoid transcription factor (LBF-1, CP-2) that represses LTR-driven transcription (SEQ ID NO: 5) (protein, listed as Homo sapiens) MAWALKLPLADEVIESGLVQDFDASLSGIGQELGAGAYSMSDVLALPIFKQEESSLPPDNENKILPFQYVLCAATSPAVKLHDETLTYLNQGQSYEIRMLDNRKLGELPEINGKLVKSIFRVVFHDRRLQYTEHQQLEGWRWNRPGDRILDIDIPMSVGIIDPRANPTQLNTVEFLWDPAKRTSVFIQVHCISTEFTMRKHGGEKGVPFRVQIDTFKENENGEYTEHLHSASCQIKVFKPKGADRKQKTDREKMEKRTPHEKEKYQPSYETTILTECSPWPEITYVNNSPSPGFNSSHSSFSLGEGNGSPNHQPEPPPPVTDNLLPTTTPQEAQQWLHRNRFSTFTRLFTNFSGADLLKLTRDDVIQICGPADGIRLFNALKGRMVRPRLTIYVCQESLQLREQQQQQQQQQQKHEDGDSNGTFFVYHAIYLEELTAVELTEKIAQLFSISPCQISQIYKQGPTGIHVLISDEMIQNFQEEACFILDTMKQETNDSYHIILK | had no effect on expression of CAT | augmented repression mediated by YY1 | formed a diffuse faintly visible EMSA band | induced a very prominent protein-DNA complex | –
YZnFs: GST fused to all four YY1 zinc fingers without the YY1 amino-terminal region (protein, left off: a dimerising Fc or GST, GST fused to all four YY1 zinc fingers without the YY1 amino-terminal region) TIACPHKGCTKMFRDNSAMRKHLHTHGPRVHVCAECGKAFVESSKLKRHQLVHTGEKPFQCTFEGCGKRFSLDFNLRTHVRIHTGDRPYVCPFDGCNKKFAQSTNLKSHILTHAKAKNNQ | – | – | – | – | binds LSF with equal avidity to intact GST-YY1
